B1: Pistol ribozyme (parent)
chain: GGGUCGUUGUUCCAUAAUCGCGUGGAUAUGGCACGCAAGUUUCUACCGGGCACCGUAAAUGUCCGACUGGAGCCGUUCGGGCGGCUAUAAACAGACCUCAGGCCCGAAGCGUGGCGGCACCUGCCGCCGGUGGUAAAAAAGAUCGGAAGAGCACACGUCU

Variants of: B1
Assay: aptazyme ON/OFF ratio, guanine; higher = stronger switching; co-transcriptional cleavage with and without guanine

Row | Variant | aptazyme ON/OFF ratio
1 | U7A U8C G9A U10C U11G C12G C13A | 1.23
2 | U7A U8C G9A U10C U11G C12G C13U | 1.1
3 | U7A U8C G9A U10C U11G C12G C13G | 1.29
4 | U7A U8C G9A U11C C12A C13G | 1.16
5 | U7A U8C G9A U11C C12A C13U | 1.23
6 | U7A U8C G9A U11C C12A C13A | 1.19
7 | U7A U8C G9A U10A U11C C12U C13U | 1.05
8 | U7A U8C G9A U10A U11C C12U C13G | 1.15
9 | U7A U8C G9A U10A U11C C12U C13A | 1.12
10 | U7A U8C G9A U10G C13U | 1.09
11 | U7A U8C G9A U10G C13G | 1.2
12 | U7A U8C G9A U10G C13A | 1.17
13 | U7A U8C G9A U10A U11G C12G | 1.16
14 | U7A U8C G9A U10A U11G C12A | 1.06
15 | U7A U8C G9A U10A U11G C12U | 1.45
16 | U7A U8C G9A U11G C12G C13A | 1.19
17 | U7A U8C G9A U11G C12G C13G | 1.31
18 | U7A U8C G9A U11G C12G C13U | 1.15
19 | U7A U8C G9A U10A U11C C13U | 1.04
20 | U7A U8C G9A U10A U11C C13A | 1.02
21 | U7A U8C G9A U10A U11C C13G | 1.03
22 | U7A U8C G9A U10C C12U C13U | 1.26
23 | U7A U8C G9A U10C C12U C13A | 1.17
24 | U7A U8C G9A U10C C12U C13G | 1.1

Row | Variant | aptazyme ON/OFF ratio
25 | U7A U8C G9A U10C U11C C12G C13G | 1.07
26 | U7A U8C G9A U10C U11C C12G C13A | 1.06
27 | U7A U8C G9A U10C U11C C12G C13U | 1.06
28 | U7A U8C G9C U10C C12G C13A | 1.04
29 | U7A U8C G9C U10C C12G C13U | 1.08
30 | U7A U8C G9C U10C C12G C13G | 1.12
31 | U7A U8C G9A U10G U11C C12G C13A | 1.21
32 | U7A U8C G9A U10G U11C C12G C13U | 1.18
33 | U7A U8C G9A U10G U11C C12G C13G | 1.09
34 | U7A U8C G9A U10C U11G C12G | 1.27
35 | U7A U8C G9A U10C U11G C12A | 1.09
36 | U7A U8C G9A U10C U11G C12U | 1.23
37 | U7A U8C G9A U10G C12A C13U | 1.19
38 | U7A U8C G9A U10G C12A C13G | 1.2
39 | U7A U8C G9A U10G C12A C13A | 1.24
40 | U7A U8C G9A U11G C13U | 1.22
41 | U7A U8C G9A U11G C13G | 1.31
42 | U7A U8C G9A U11G C13A | 1.27
43 | U7A U8C G9A U10C C12A C13U | 1.13
44 | U7A U8C G9A U10C C12A C13A | 1.2
45 | U7A U8C G9A U10C C12A C13G | 1.18
46 | U7A U8C G9C U10A U11A C13A | 1.07
47 | U7A U8C G9C U10A U11A C13G | 1.06
48 | U7A U8C G9C U10A U11A C13U | 1.13

Row | Variant | aptazyme ON/OFF ratio
49 | U7A U8C G9A U11A C12A C13A | 1.31
50 | U7A U8C G9A U11A C12A C13U | 1.17
51 | U7A U8C G9A U11A C12A C13G | 1.09
52 | U7A U8C G9A U10G C12U C13A | 1.23
53 | U7A U8C G9A U10G C12U C13U | 1.39
54 | U7A U8C G9A U10G C12U C13G | 1.18
55 | U7A U8C G9A U11C C12G | 1.24
56 | U7A U8C G9A U11C C12U | 1.14
57 | U7A U8C G9A U11C C12A | 1.21
58 | U7A U8C G9C C12U C13U | 1.14
59 | U7A U8C G9C C12U C13G | 1.06
60 | U7A U8C G9C C12U C13A | 1.08
61 | U7A U8C G9A U10G U11A C12G C13G | 1.07
62 | U7A U8C G9A U10G U11A C12G C13A | 1.11
63 | U7A U8C G9A U10G U11A C12G C13U | 1.3
64 | U7A U8C G9C C12A | 1.12
65 | U7A U8C G9C C12G | 1.09
66 | U7A U8C G9C C12U | 1.06
67 | U7A U8C G9A U10G U11A | 1.03
68 | U7A U8C G9A U10G U11C | 1.04
69 | U7A U8C G9A U10G U11G | 1.08
70 | U7A U8C G9C U10A C13G | 1.07
71 | U7A U8C G9C U10A C13A | 1.09
72 | U7A U8C G9C U10A C13U | 1.06

Row | Variant | aptazyme ON/OFF ratio
73 | U7A U8C G9C U10A U11G C12G C13G | 1.13
74 | U7A U8C G9C U10A U11G C12G C13A | 1.08
75 | U7A U8C G9C U10A U11G C12G C13U | 1.14
76 | U7A U8C G9A U10C U11A C12U | 1.25
77 | U7A U8C G9A U10C U11A C12G | 1.21
78 | U7A U8C G9A U10C U11A C12A | 1.19
79 | U7A U8C G9A U11C C12U C13A | 1.22
80 | U7A U8C G9A U11C C12U C13G | 1.16
81 | U7A U8C G9A U11C C12U C13U | 1.19
82 | U7A U8C G9C U10A U11G C12U C13G | 1.14
83 | U7A U8C G9C U10A U11G C12U C13A | 1.13
84 | U7A U8C G9C U10A U11G C12U C13U | 1.14
85 | U7A U8C G9C U10C U11A C12U | 1.03
86 | U7A U8C G9C U10C U11A C12A | 1.07
87 | U7A U8C G9C U10C U11A C12G | 1.02
88 | U7A U8C G9A U10G U11A C12A C13A | 1.19
89 | U7A U8C G9A U10G U11A C12A C13G | 1.11
90 | U7A U8C G9A U10G U11A C12A C13U | 1.24
91 | U7A U8C G9A U10C U11G C12U C13U | 1.41
92 | U7A U8C G9A U10C U11G C12U C13A | 1.29
93 | U7A U8C G9A U10C U11G C12U C13G | 1.35
94 | U7A U8C G9C U10A U11G C12A | 1.04
95 | U7A U8C G9C U10A U11G C12G | 1.12
96 | U7A U8C G9C U10A U11G C12U | 1.19

Row | Variant | aptazyme ON/OFF ratio
97 | U7A U8C G9C U10C | 1.18
98 | U7A U8C G9C U10A | 1.17
99 | U7A U8C G9C U10A U11A C12A | 1.09
100 | U7A U8C G9C U10A U11A C12G | 1.13
101 | U7A U8C G9C U10A U11A C12U | 1.07
102 | U7A U8C G9A U10C U11C C12U C13A | 1.05
103 | U7A U8C G9A U10C U11C C12U C13G | 1.03
104 | U7A U8C G9A U10C U11C C12U C13U | 1.04
105 | U7A U8C G9C U10A U11G C12A C13U | 1.11
106 | U7A U8C G9C U10A U11G C12A C13G | 1.12
107 | U7A U8C G9C U10A U11G C12A C13A | 1.11
108 | U7A U8C G9C U10A U11G | 1.11
109 | U7A U8C G9C U10A U11C | 1.08
110 | U7A U8C G9C U10A U11A | 1.07
111 | U7A U8C G9A U10G U11C C12A C13A | 1.18
112 | U7A U8C G9A U10G U11C C12A C13U | 1.23
113 | U7A U8C G9A U10G U11C C12A C13G | 1.25
114 | U7A U8C G9C U10A U11C C12U C13G | 1.26
115 | U7A U8C G9C U10A U11C C12U C13A | 1.05
116 | U7A U8C G9C U10A U11C C12U C13U | 1.22
117 | U7A U8C G9C U10A C12A | 1.09
118 | U7A U8C G9C U10A C12G | 1.21
119 | U7A U8C G9C U10A C12U | 1.11
120 | U7A U8C G9A U10A U11G C12A C13U | 1.16

Row | Variant | aptazyme ON/OFF ratio
121 | U7A U8C G9A U10A U11G C12A C13G | 1.23
122 | U7A U8C G9A U10A U11G C12A C13A | 1.08
123 | U7A U8C G9A U10G U11G C12A C13U | 1.27
124 | U7A U8C G9A U10G U11G C12A C13G | 1.15
125 | U7A U8C G9A U10G U11G C12A C13A | 1.39
126 | U7A U8C G9C U10C U11G | 1.03
127 | U7A U8C G9C U10C U11C | 0.989
128 | U7A U8C G9C U10C U11A | 1.03
129 | U7A U8C G9A U10G C12G C13G | 1.2
130 | U7A U8C G9A U10G C12G C13U | 1.31
131 | U7A U8C G9A U10G C12G C13A | 1.27
132 | U7A U8C G9A U10C | 2.35
133 | U7A U8C G9A U10G | 1.37
134 | U7A U8C G9C U10C C12U C13G | 1.06
135 | U7A U8C G9C U10C C12U C13A | 1.04
136 | U7A U8C G9C U10C C12U C13U | 1.04
137 | U7A U8C G9C U10C U11G C12A C13U | 1.11
138 | U7A U8C G9C U10C U11G C12A C13A | 1.18
139 | U7A U8C G9C U10C U11G C12A C13G | 1.07
140 | U7A U8C G9C U10A U11A C12A C13A | 1.05
141 | U7A U8C G9C U10A U11A C12A C13G | 1.08
142 | U7A U8C G9C U10A U11A C12A C13U | 1.05
143 | U7A U8C G9A U10C U11A C12G C13G | 1.22
144 | U7A U8C G9A U10C U11A C12G C13A | 1.1

Row | Variant | aptazyme ON/OFF ratio
145 | U7A U8C G9A U10C U11A C12G C13U | 1.09
146 | U7A U8C G9C U10A C12A C13G | 1.08
147 | U7A U8C G9C U10A C12A C13U | 1.09
148 | U7A U8C G9C U10A C12A C13A | 1
149 | U7A U8C G9A U10C U11C C13U | 1.02
150 | U7A U8C G9A U10C U11C C13A | 1.04
151 | U7A U8C G9A U10C U11C C13G | 1
152 | U7A U8C G9A U11A C12U | 1.25
153 | U7A U8C G9A U11A C12G | 1.26
154 | U7A U8C G9A U11A C12A | 1.43
155 | U7A U8C G9A U10G U11C C12U C13G | 1.2
156 | U7A U8C G9A U10G U11C C12U C13A | 1.16
157 | U7A U8C G9A U10G U11C C12U C13U | 1.16
158 | U7A U8C G9A U11C C13A | 1.06
159 | U7A U8C G9A U11C C13G | 1.08
160 | U7A U8C G9A U11C C13U | 1.1
161 | U7A U8C G9A U10G U11A C13A | 1.04
162 | U7A U8C G9A U10G U11A C13U | 1.04
163 | U7A U8C G9A U10G U11A C13G | 1.05
164 | U7A U8C G9A U11G C12U C13G | 1.22
165 | U7A U8C G9A U11G C12U C13U | 1.32
166 | U7A U8C G9A U11G C12U C13A | 1.28
167 | U7A U8C G9C U10C U11C C12G C13G | 1.09

From the RNAGym collection of RNA variant scans (doi:10.1021/acssynbio.7b00057)
